The text below walks through data of the RNAGym collection of RNA variant scans (doi:10.7554/elife.80360).

First the molecules themselves.
B1: Hairpin Ribozyme (parent)
chain: GUCCUCUUUCACGUGCGCGUGAAAGAGAGAAGUGAACCAGAGAAACACACGUUGUGGUAUAUUACCUGGUA

In this data set the parent is B1. As to the kind of experiment: self-cleavage, relative activity (ratio to wild type); higher = more cleavage; co-transcriptional.
As to G13U A30U, the self-cleavage came to 0.164.
As for C12U G21C, the figure is 0.651.
For the variant C12U G21U, the self-cleavage amounted to 0.672.
As for C12G G68U, the figure is 0.193; as for G13C A31U, 0.0909; as for G13C U55G, 0.107.
As for G13C U55C, the figure is 0.0845; as for G13A G21A, 0.594.
With G13A G21C, the self-cleavage amounted to 0.862.
Turning to G13U A24U, the self-cleavage stood at 0.595.
Take G13U A24C: the self-cleavage was found to be 0.563.
As to C12U C50G, the self-cleavage is 0.231.
For G13C G51A, the self-cleavage amounted to 0.521.
For the variant U14A C18G, the self-cleavage was 0.636.
Turning to U14A C18A, the self-cleavage was determined as 0.888.
As to C12G U14G, the self-cleavage turned out to be 0.684.
In the case of C12G U14A, the self-cleavage is 0.629.
In the case of C12G C46U, the self-cleavage came out at 0.191.
Consider C12U A43C, for which the self-cleavage came to 0.105.
On to G13U U55G, for which the self-cleavage came out at 0.124.
Turning to G13A U62A, the self-cleavage was 0.163.
As for G13A G51U, the figure is 0.821.
For G13A G51A, the self-cleavage came to 0.87.
For the variant C12U U62A, the self-cleavage was determined as 0.148.
In the case of C12U G51C, the self-cleavage was 0.809.
As for C12U G51U, the figure is 0.872; as for C12U G51A, 1.01.
On to G13A U58C, for which the self-cleavage was found to be 0.817.
For the variant G13C C37A, the self-cleavage is 0.204.
On to G13C C37U, for which the self-cleavage came to 0.508.
In the case of U14A A44C it was 0.14.
Turning to U14A A44G, the self-cleavage was determined as 0.189.
Consider U14A A24G, for which the self-cleavage worked out at 0.938.
As for G13C A35C, the figure is 0.717.
In the case of G13U A49U it was 0.169; in that of C12U G54C, 0.47.
As to C12G C16U, the self-cleavage worked out at 0.812.
With G13U G34U, the self-cleavage worked out at 1.12.
As to G13U G34A, the self-cleavage turned out to be 1.1.
Consider G13U G34C, for which the self-cleavage is 0.998.
With G13A C66G, the self-cleavage was 0.16.
On to C12U A41C, for which the self-cleavage is 0.886.
In the case of C12U A49G it was 0.564; in that of C12G A71U, 0.655.
On to C12G A71C, for which the self-cleavage worked out at 1.3.
As to C12G A36C, the self-cleavage came to 0.533.
Turning to C12G A36G, the self-cleavage came out at 0.843.
As to G13C A26C, the self-cleavage is 0.403.
As for C12U A22C, the figure is 0.831; as for G13U A36U, 0.47; as for U14A A28U, 0.574.
Take C12G G25U: the self-cleavage was 0.472.
As to G13U A26C, the self-cleavage was determined as 0.416.
In the case of G13U A26U it was 0.52; in that of G13U A23U, 0.709.
Consider G13U G57A, for which the self-cleavage was 0.123.
Regarding C12G A41C, the self-cleavage turned out to be 1.21.
As for C12G A49G, the self-cleavage turned out to be 0.462.
In the case of G13U G32U it was 0.157; in that of C12G G57U, 0.322; in that of G13C A36C, 0.304.
With G13A G68C, the self-cleavage came to 0.248.
As to G13A G68U, the self-cleavage came out at 0.218.
As for G13C G25C, the self-cleavage amounted to 0.356.
As to G13C C16A, the self-cleavage came to 0.597.
Regarding G13U C65U, the self-cleavage was found to be 0.301.
As for G13U C65G, the figure is 0.193.
Regarding U14A A43G, the self-cleavage was 0.147.
With U14A C66U, the self-cleavage was 0.335.
Take C12U C16G: the self-cleavage came out at 0.78.
Take C12U C16A: the self-cleavage is 0.735.
In the case of G13U A59G it was 0.0932; in that of C12U C18A, 1.01.
For G13U C16A, the self-cleavage came to 0.558.
G13U G40U: the self-cleavage stood at 0.153.
Regarding G13U G40C, the self-cleavage was found to be 0.122.
In the case of G13U C48A it was 0.0958.
Turning to G13U C48U, the self-cleavage worked out at 0.125.
Regarding C12G C65A, the self-cleavage worked out at 0.829.
Regarding U14A G32C, the self-cleavage was determined as 0.157.
As for G13U U20G, the figure is 0.815; as for C12U G13A, 0.72; as for G13C U53C, 0.535.
G13U A35G: the self-cleavage stood at 0.709.
In the case of G13U A35C, the self-cleavage turned out to be 0.876.
As for C12G U63G, the self-cleavage came out at 0.204.
In the case of C12G U63A, the self-cleavage came out at 0.194.
As for G13U A45C, the figure is 0.141; as for U14A G57A, 0.139; as for C12G A31C, 0.174.
With G13A C65U, the self-cleavage came out at 0.285.
On to U14A C50G, for which the self-cleavage was 0.279.
As for U14A G21A, the self-cleavage worked out at 0.936.
For U14A G21U, the self-cleavage is 0.795.
Consider G13A G17U, for which the self-cleavage turned out to be 0.656.
Regarding G13C A41C, the self-cleavage amounted to 0.892.
As to G13C A41G, the self-cleavage was determined as 0.498.
Consider G13C A41U, for which the self-cleavage is 0.819.
For G13C U67A, the self-cleavage amounted to 0.189.
For G13A G69C, the self-cleavage stood at 0.275.
Regarding G13A G25C, the self-cleavage is 0.36.
In the case of G13U G17A it was 0.69; in that of G13U U67A, 0.257; in that of G13A U55G, 0.112.
Consider G13A A26C, for which the self-cleavage came out at 0.556.
As for G13A A26G, the figure is 0.778.
For the variant G13A A26U, the self-cleavage came out at 0.529.
As for U14A A31G, the self-cleavage amounted to 0.52.
For the variant U14A A31C, the self-cleavage is 0.391.
C12U A47C: the self-cleavage amounted to 0.221.
As for G13A A43C, the figure is 0.119; as for G13C A30C, 0.112; as for G13U U70C, 0.784.
As for G13U U70G, the figure is 0.78; as for G13U G42A, 0.16; as for G13U G42U, 0.289.
G13C A28U: the self-cleavage worked out at 0.252.
Take G13C A28G: the self-cleavage stood at 0.85.
In the case of G13U A31C it was 0.133; in that of C12G G34U, 1.16; in that of C12G G34A, 1.03.
For the variant G13C A22C, the self-cleavage was 0.591.
In the case of G13A G19A it was 0.806; in that of G13C U52A, 0.658.
As for C12G G42C, the figure is 0.351; as for G13A G34U, 1.22.
For G13A G34A, the self-cleavage is 1.19.
Turning to U14A U33G, the self-cleavage was 0.207.
For U14A U33C, the self-cleavage was found to be 0.153.
As for U14A U33A, the self-cleavage is 0.137.
As to C12G U33G, the self-cleavage amounted to 0.0897.
As for C12G U33C, the self-cleavage is 0.246.
For the variant G13C U58G, the self-cleavage came out at 0.398.
As for G13C G27A, the figure is 0.314; as for G13A A36G, 0.873; as for G13A A36C, 0.533.
In the case of C12G A26U, the self-cleavage is 0.696.
In the case of C12G A26C it was 0.555; in that of G13A U20A, 0.716.
Turning to G13A U20G, the self-cleavage came out at 0.723.
Regarding C12U U70C, the self-cleavage was 0.96.
In the case of G13A G27U, the self-cleavage was 0.257.
For the variant G13C A24G, the self-cleavage was determined as 0.537.
On to G13C G56C, for which the self-cleavage was determined as 0.17.
For G13C G56U, the self-cleavage turned out to be 0.202.
On to G13U G25U, for which the self-cleavage was determined as 0.527.
On to G13U G25A, for which the self-cleavage is 0.559.
G13C G19A: the self-cleavage amounted to 0.753.
For the variant G13C G19C, the self-cleavage is 0.58.
With C12U G27A, the self-cleavage stood at 0.328.
For C12G U20A, the self-cleavage is 0.795.
For the variant G13A G42U, the self-cleavage worked out at 0.234.
Turning to G13A G42C, the self-cleavage is 0.302.
C12U G34C: the self-cleavage stood at 1.14.
For the variant C12U G34A, the self-cleavage was 1.19.
In the case of G13U G21U it was 0.53; in that of U14A G34A, 1.31; in that of U14A G34C, 1.19.
In the case of C12G C48A it was 0.128; in that of G13A A64G, 0.526.
As for C12U G17A, the figure is 0.91; as for C12U G17C, 0.578.
In the case of C12U A31G, the self-cleavage is 0.549.
On to G13A U33G, for which the self-cleavage stood at 0.136.
G13A U33A: the self-cleavage amounted to 0.165.
As for G13A U33C, the self-cleavage amounted to 0.139.
In the case of G13A G29A it was 0.167.
